Measured values from patent publication US20240209076A1 (KODIAK SCIENCES, published 2024).

Key:
[1] = molecular target: T1, recombinant human IL-6 (human, UniProt P05231 30-212); experiment: SPR (Biacore), supernatant IgG on Protein A, 25 C
T1 construct: Flowed in solution over the captured antibodies

[2] = molecular target: T1, recombinant human IL-6; experiment: SPR (Biacore), purified IgG on Protein A, 37 C
Protocol: Antibodies were captured on a Protein A chip (GE) by injecting 1:20 dilution of cell supernatant at 10 μL/min for 60 seconds. […] The sensor chip was regenerated by a 60 seconds injection of 10 mM Glycine pH 1.7 at flow rate of 50 μL/min. […] For this setup, 1 μg/mL of purified antibody was injected over a Protein A chip at 10 μL/min for 25-28 seconds. Data analysis for supernatant and purified samples were performed using BIAevaluation software (GE). All sensorgrams were double reference subtracted and fit using a 1:1 Langmuir binding model.

T1 sequence (P05231 30-212 limits assumed): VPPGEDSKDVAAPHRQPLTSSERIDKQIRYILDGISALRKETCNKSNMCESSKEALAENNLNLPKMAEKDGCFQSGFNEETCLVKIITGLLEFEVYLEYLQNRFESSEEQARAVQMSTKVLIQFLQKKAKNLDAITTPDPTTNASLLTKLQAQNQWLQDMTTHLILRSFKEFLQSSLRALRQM

| Binder | Kd [1] [nM] | koff [1] [s⁻¹] | kon [1] [M⁻¹ s⁻¹] | Kd [2] [nM] | koff [2] [s⁻¹] | kon [2] [M⁻¹ s⁻¹] |
| --- | --- | --- | --- | --- | --- | --- |
| anti-IL-6 antibody, heavy chain F29Y, light chain WT (antibody, IgG1, V domains shown, Full IgG1 tested; V domains derived as in m2) VH: EVQLVESGGGLVQPGGSLRLSCAASGFTYSPFAMSWVRQAPGKGLEWVAKISPGGSWTYYSDTVTGRFTFSLDTSKSTAYLQMNSLRAEDTAVYYCARQLWGYYALDIWGQGTLVTVSS VL: DIQLTQSPSSLSASVGDRVTITCSASISVSYMYWYQQKPGKAPKLLIYDMSNLASGVPSRFSGSGSGTDFTLTISSLQPEDFATYYCMQWSGYPYTFGQGTKVEIK | 0.266 | 0.000133 | 499000 | 0.444 | 0.000374 | 842000 |
| anti-IL-6 antibody, heavy chain WT, light chain A25T (antibody, IgG1, V domains shown, Full IgG1 tested; V domains derived as in m2) VH: EVQLVESGGGLVQPGGSLRLSCAASGFTFSPFAMSWVRQAPGKGLEWVAKISPGGSWTYYSDTVTGRFTFSLDTSKSTAYLQMNSLRAEDTAVYYCARQLWGYYALDIWGQGTLVTVSS VL: DIQLTQSPSSLSASVGDRVTITCSTSISVSYMYWYQQKPGKAPKLLIYDMSNLASGVPSRFSGSGSGTDFTLTISSLQPEDFATYYCMQWSGYPYTFGQGTKVEIK | 0.235 | 0.000119 | 508000 | 0.425 | 0.000378 | 889000 |
| anti-IL-6 antibody, heavy chain I108S, light chain WT (antibody, IgG1, V domains shown, Full IgG1 tested; V domains derived as in m2) VH: EVQLVESGGGLVQPGGSLRLSCAASGFTFSPFAMSWVRQAPGKGLEWVAKISPGGSWTYYSDTVTGRFTFSLDTSKSTAYLQMNSLRAEDTAVYYCARQLWGYYALDSWGQGTLVTVSS VL: DIQLTQSPSSLSASVGDRVTITCSASISVSYMYWYQQKPGKAPKLLIYDMSNLASGVPSRFSGSGSGTDFTLTISSLQPEDFATYYCMQWSGYPYTFGQGTKVEIK | 0.256 | 0.000141 | 554000 | 0.391 | 0.000336 | 858000 |
| anti-IL-6 antibody, heavy chain L100Q, light chain WT (antibody, IgG1, V domains shown, Full IgG1 tested; V domains derived as in m2) VH: EVQLVESGGGLVQPGGSLRLSCAASGFTFSPFAMSWVRQAPGKGLEWVAKISPGGSWTYYSDTVTGRFTFSLDTSKSTAYLQMNSLRAEDTAVYYCARQQWGYYALDIWGQGTLVTVSS VL: DIQLTQSPSSLSASVGDRVTITCSASISVSYMYWYQQKPGKAPKLLIYDMSNLASGVPSRFSGSGSGTDFTLTISSLQPEDFATYYCMQWSGYPYTFGQGTKVEIK | 0.384 | 0.000153 | 398000 | 0.499 | 0.00041 | 823000 |
| anti-IL-6 antibody, heavy chain G26S, light chain WT (antibody, IgG1, V domains shown, Full IgG1 tested; V domains derived as in m2) VH: EVQLVESGGGLVQPGGSLRLSCAASSFTFSPFAMSWVRQAPGKGLEWVAKISPGGSWTYYSDTVTGRFTFSLDTSKSTAYLQMNSLRAEDTAVYYCARQLWGYYALDIWGQGTLVTVSS VL: DIQLTQSPSSLSASVGDRVTITCSASISVSYMYWYQQKPGKAPKLLIYDMSNLASGVPSRFSGSGSGTDFTLTISSLQPEDFATYYCMQWSGYPYTFGQGTKVEIK | 0.209 | 0.000115 | 551000 | 0.463 | 0.00039 | 842000 |
| anti-IL-6 antibody, heavy chain M34W, light chain WT (antibody, IgG1, V domains shown, Full IgG1 tested; VL as in m2) VH: EVQLVESGGGLVQPGGSLRLSCAASGFTFSPFAWSWVRQAPGKGLEWVAKISPGGSWTYYSDTVTGRFTFSLDTSKSTAYLQMNSLRAEDTAVYYCARQLWGYYALDIWGQGTLVTVSS VL: DIQLTQSPSSLSASVGDRVTITCSASISVSYMYWYQQKPGKAPKLLIYDMSNLASGVPSRFSGSGSGTDFTLTISSLQPEDFATYYCMQWSGYPYTFGQGTKVEIK | 0.39 | 0.000115 | 296000 | 0.394 | 0.000236 | 599000 |
| anti-IL-6 antibody, heavy chain F32G, light chain WT (antibody, IgG1, V domains shown, Full IgG1 tested; V domains derived as in m2) VH: EVQLVESGGGLVQPGGSLRLSCAASGFTFSPGAMSWVRQAPGKGLEWVAKISPGGSWTYYSDTVTGRFTFSLDTSKSTAYLQMNSLRAEDTAVYYCARQLWGYYALDIWGQGTLVTVSS VL: DIQLTQSPSSLSASVGDRVTITCSASISVSYMYWYQQKPGKAPKLLIYDMSNLASGVPSRFSGSGSGTDFTLTISSLQPEDFATYYCMQWSGYPYTFGQGTKVEIK | 0.318 | 0.000133 | 418000 | 0.569 | 0.00037 | 650000 |
| anti-IL-6 antibody, heavy chain I108F, light chain WT (antibody, IgG1, V domains shown, Full IgG1 tested; V domains derived as in m2) VH: EVQLVESGGGLVQPGGSLRLSCAASGFTFSPFAMSWVRQAPGKGLEWVAKISPGGSWTYYSDTVTGRFTFSLDTSKSTAYLQMNSLRAEDTAVYYCARQLWGYYALDFWGQGTLVTVSS VL: DIQLTQSPSSLSASVGDRVTITCSASISVSYMYWYQQKPGKAPKLLIYDMSNLASGVPSRFSGSGSGTDFTLTISSLQPEDFATYYCMQWSGYPYTFGQGTKVEIK | 0.399 | 0.000146 | 365000 | 0.587 | 0.000401 | 683000 |
| anti-IL-6 antibody, heavy chain G66E, light chain WT (antibody, IgG1, V domains shown, Full IgG1 tested; V domains derived as in m2) VH: EVQLVESGGGLVQPGGSLRLSCAASGFTFSPFAMSWVRQAPGKGLEWVAKISPGGSWTYYSDTVTERFTFSLDTSKSTAYLQMNSLRAEDTAVYYCARQLWGYYALDIWGQGTLVTVSS VL: DIQLTQSPSSLSASVGDRVTITCSASISVSYMYWYQQKPGKAPKLLIYDMSNLASGVPSRFSGSGSGTDFTLTISSLQPEDFATYYCMQWSGYPYTFGQGTKVEIK | 0.107 | 0.00011 | 1.02e+06 | 0.0895 | 0.000171 | 1.91e+06 |
| anti-IL-6 antibody, heavy chain WT, light chain A25S (antibody, IgG1, V domains shown, Full IgG1 tested; V domains derived as in m2) VH: EVQLVESGGGLVQPGGSLRLSCAASGFTFSPFAMSWVRQAPGKGLEWVAKISPGGSWTYYSDTVTGRFTFSLDTSKSTAYLQMNSLRAEDTAVYYCARQLWGYYALDIWGQGTLVTVSS VL: DIQLTQSPSSLSASVGDRVTITCSSSISVSYMYWYQQKPGKAPKLLIYDMSNLASGVPSRFSGSGSGTDFTLTISSLQPEDFATYYCMQWSGYPYTFGQGTKVEIK | 0.197 | 0.000105 | 535000 | 0.438 | 0.000342 | 782000 |
| anti-IL-6 antibody, heavy chain W57F, light chain WT (antibody, IgG1, V domains shown, Full IgG1 tested; V domains derived as in m2) VH: EVQLVESGGGLVQPGGSLRLSCAASGFTFSPFAMSWVRQAPGKGLEWVAKISPGGSFTYYSDTVTGRFTFSLDTSKSTAYLQMNSLRAEDTAVYYCARQLWGYYALDIWGQGTLVTVSS VL: DIQLTQSPSSLSASVGDRVTITCSASISVSYMYWYQQKPGKAPKLLIYDMSNLASGVPSRFSGSGSGTDFTLTISSLQPEDFATYYCMQWSGYPYTFGQGTKVEIK | 0.222 | 0.000128 | 577000 | 0.524 | 0.000453 | 864000 |
| anti-IL-6 antibody, heavy chain L106F, light chain WT (antibody, IgG1, V domains shown, Full IgG1 tested; V domains derived as in m2) VH: EVQLVESGGGLVQPGGSLRLSCAASGFTFSPFAMSWVRQAPGKGLEWVAKISPGGSWTYYSDTVTGRFTFSLDTSKSTAYLQMNSLRAEDTAVYYCARQLWGYYAFDIWGQGTLVTVSS VL: DIQLTQSPSSLSASVGDRVTITCSASISVSYMYWYQQKPGKAPKLLIYDMSNLASGVPSRFSGSGSGTDFTLTISSLQPEDFATYYCMQWSGYPYTFGQGTKVEIK | 0.314 | 0.000185 | 591000 | 0.634 | 0.000541 | 852000 |
| anti-IL-6 antibody, heavy chain I51R, light chain WT (antibody, IgG1, V domains shown, Full IgG1 tested; V domains derived as in m2) VH: EVQLVESGGGLVQPGGSLRLSCAASGFTFSPFAMSWVRQAPGKGLEWVAKRSPGGSWTYYSDTVTGRFTFSLDTSKSTAYLQMNSLRAEDTAVYYCARQLWGYYALDIWGQGTLVTVSS VL: DIQLTQSPSSLSASVGDRVTITCSASISVSYMYWYQQKPGKAPKLLIYDMSNLASGVPSRFSGSGSGTDFTLTISSLQPEDFATYYCMQWSGYPYTFGQGTKVEIK | 0.165 | 7.6e-05 | 462000 | 0.505 | 0.000343 | 679000 |
| anti-IL-6 antibody, heavy chain G66D, light chain WT (antibody, IgG1, V domains shown, Full IgG1 tested) VH: EVQLVESGGGLVQPGGSLRLSCAASGFTFSPFAMSWVRQAPGKGLEWVAKISPGGSWTYYSDTVTDRFTFSLDTSKSTAYLQMNSLRAEDTAVYYCARQLWGYYALDIWGQGTLVTVSS VL: DIQLTQSPSSLSASVGDRVTITCSASISVSYMYWYQQKPGKAPKLLIYDMSNLASGVPSRFSGSGSGTDFTLTISSLQPEDFATYYCMQWSGYPYTFGQGTKVEIK | 0.0902 | 0.000117 | 1.3e+06 | 0.0695 | 0.000136 | 1.96e+06 |
| anti-IL-6 antibody, heavy chain I108E, light chain WT (antibody, IgG1, V domains shown, Full IgG1 tested; V domains derived as in m2) VH: EVQLVESGGGLVQPGGSLRLSCAASGFTFSPFAMSWVRQAPGKGLEWVAKISPGGSWTYYSDTVTGRFTFSLDTSKSTAYLQMNSLRAEDTAVYYCARQLWGYYALDEWGQGTLVTVSS VL: DIQLTQSPSSLSASVGDRVTITCSASISVSYMYWYQQKPGKAPKLLIYDMSNLASGVPSRFSGSGSGTDFTLTISSLQPEDFATYYCMQWSGYPYTFGQGTKVEIK | 0.305 | 0.000174 | 571000 | 0.404 | 0.000372 | 921000 |
| anti-IL-6 antibody, heavy chain WT, light chain I27F (antibody, IgG1, V domains shown, Full IgG1 tested; V domains derived as in m2) VH: EVQLVESGGGLVQPGGSLRLSCAASGFTFSPFAMSWVRQAPGKGLEWVAKISPGGSWTYYSDTVTGRFTFSLDTSKSTAYLQMNSLRAEDTAVYYCARQLWGYYALDIWGQGTLVTVSS VL: DIQLTQSPSSLSASVGDRVTITCSASFSVSYMYWYQQKPGKAPKLLIYDMSNLASGVPSRFSGSGSGTDFTLTISSLQPEDFATYYCMQWSGYPYTFGQGTKVEIK | 0.443 | 0.000193 | 436000 | 0.685 | 0.00069 | 1.01e+06 |
| anti-IL-6 antibody, heavy chain G26R, light chain WT (antibody, IgG1, V domains shown, Full IgG1 tested; V domains derived as in m2) VH: EVQLVESGGGLVQPGGSLRLSCAASRFTFSPFAMSWVRQAPGKGLEWVAKISPGGSWTYYSDTVTGRFTFSLDTSKSTAYLQMNSLRAEDTAVYYCARQLWGYYALDIWGQGTLVTVSS VL: DIQLTQSPSSLSASVGDRVTITCSASISVSYMYWYQQKPGKAPKLLIYDMSNLASGVPSRFSGSGSGTDFTLTISSLQPEDFATYYCMQWSGYPYTFGQGTKVEIK | 0.302 | 0.000121 | 402000 | 0.465 | 0.000326 | 702000 |
